Measured values from patent publication US9707267B2, “Beta-turn peptidomimetic cyclic compounds for treating dry eye” (Mimetogen Pharmaceuticals, Inc., priority 2008, dated 2017).

Tests used:
[1] = Scopolamine induced rat dry eye model, body weights (Example 5); assay type: in vivo; conditions: ± SD
Description: After the surgery and again the next day, the animals were subcutaneously injected with Caprofen (0.5 mg/100 g) a non-steroidal anti-inflammatory drug and potent, long-acting analgesic in rodents. Animals were weighed prior to pump implantation on Day−1, and then once a week for four weeks. This dosing regimen was reported to induce dry eye in rats (Viau S et al., “Time course of ocular surface and lacrimal gland changes in a new scopolamine-induced dry eye model,” Graefes Arch Clin Exp Ophthalmol., 246:857-867 (2008), the entire content of which is incorporated herein by reference).
There were no mortalities. […] Conjunctival congestion and conjunctival bloody discharge usually resolved the next day, but conjunctival swelling continued throughout the study. Pre-treatment, mean body weight was approximately 400 g, and was not statistically different among groups (p=0.3927) (Table 10). Mean body weight in the untreated control groups (G1) increased to approximately 575 g throughout the study. In the five groups receiving scopolamine (G2-G6), mean body weight increased to approximately 425 to 450 g. There was a statistically significant effect of treatment to decrease body weight starting on Day 14, continuing through Day 28 (p<0.0001 to 0.0426) (FIG. 24).

[2] = system: scopolamine induced dry eye model; assay: Scopolamine induced dry eye model, tear fluorescein clearance (Example 3); assay type: in vivo, rat; conditions: single topical instillation of 1% on day eight; measured day thirteen
Description: Dry eye was induced using scopolamine (Sigma-Aldrich, St. Louis, Mo.), which was continuously and systemically delivered to the animals via an osmotic pump (2ML4 Alzet®; CedarLane, Burlington, Ontario) filled with scopolamine and implanted subcutaneously in the mid dorsal area between the scapulae. The wound was closed with 2-3 wound clips. After the surgery and again the next day, the animals were subcutaneously injected with Carprofen (0.5 mg/100 g) a non-steroidal anti-inflammatory drug and potent, long-acting analgesic in rodents. Animals were anaesthetized before the surgical pump implantation and before all clinical endpoint testing in an Isofluorane 99.9% USP (Abraxis Bioscience, Richmond Hill, Ontario) chamber. […]
Tear fluorescein clearance was evaluated as described for humans (Afonso, A A. et al., “Correlation of Tear Fluorescein Clearance and Schirmer Test Scores with Ocular Irritation Symptoms,” Ophthalmology 106:803-810 (1999), the entire content of which is incorporated herein by reference) and modified for rats (Chen, W. et al., “Keratoconjunctivitis Sicca Modifies Epithelial Stem Cell Proliferation Kinetics in Conjunctiva,” Cornea 26:1101-1106 (2007), the entire content of which is incorporated herein by reference). […] The length of cotton wetting in mm determined the volume of the collected tear fluid. […]

## NGF: nerve growth factor (recombinant human), positive control
[1]; 0.00053% group, Day −1, pre-treatment
  Body Weights: 417 ± 16 g
[1]; scopolamine + 0.00053% topical 1× daily Days 5-21, Day 7
  Body Weights: 396 ± 20 g
[1]; scopolamine + 0.00053% topical 1× daily Days 5-21, Day 14
  Body Weights: 399 ± 18 g
[1]; scopolamine + 0.00053% topical 1× daily Days 5-21, Day 20
  Body Weights: 417 ± 16 g
[1]; scopolamine + 0.00053% topical 1× daily Days 5-21, Day 29
  Body Weights: 438 ± 22 g

## NCCCC[C@@H]1NC(=O)[C@H](CCC(=O)O)NC(=O)c2cc([N+](=O)[O-])ccc2OCCC(C(=O)NCC(=O)O)NC1=O (stereo partly drawn) [Compound D3]
[2]
  aqueous tear turnover, fluorescein clearance (in words): no effect on aqueous tear turnover
